Data published in US20040253236A1.

B1: convulxin (Cvx), purified from the venom of Crotalus durissus terrificus (ligand)
chain 1: GLHCPSDWYYYDQHCYRIFNEEMNWEDAEWFCTKQAKGAHLVSIKSAKEADFVAWMVTQNIEESFSHVSIGLRVQNKEKQCSTKWSDGSSVSYDNLLDLYITKCSLLKKETGFRKWFVASCIGKIPFVCKFPPQC
chain 2: GFCCPSHWSSYDRYCYKVFKQEMTWADAEKFCTQQHTGSHLVSFHSTEEVDFVVKMTHQSLKSTFFWIGANNIWNKCNWQWSDGTKPEYKEWHEEFECLISRTFDNQWLSAPCSDTYSFVCKFEA

Assays:
collagen type I = assay: cell-based or functional assay
[1] = molecular target: baboon platelet GPVI (baboon); assay: flow cytometry, washed baboon platelets (positive control)

Row | Molecule | concentration of rhusGPVI:Fc needed to inhibit collagen-induced versus Cvx-induced platelet activation (collagen type I) [fold] | Baboon fluorescence intensity [1] | Baboon platelets % positive [1] [%]
1 | recombinant human soluble GPVI:Fc (rhusGPVI:Fc) (from UniProt Q9HCN6 21-269) (Fc fusion) | 10 | – | –
2 | B1 | – | 72 | 95
